Assay results from US20180021429A1, “ANTICANCER AGENTS OR ANTIMETASTATIC AGENTS USING FSTL1 AND COMBINATION DRUG THEREOF” (PHARMA FOODS INTERNATIONAL CO., LTD., priority 2015, published 2018).
Entries after “also recorded” stand apart in the source; their conditions may differ.

Test system: induction of mesenchymal stem cells (MSCs) by FSTL1
Test: Inhibitory activity against induction of MSC by FSTL1, CD45-negative cells (Examples 6, 8, 12)
Format: cell-based, mouse
Conditions: antibody 10 μg/mL
Method: (§1) Mouse bone marrow cells prepared in the same way as in Example 4 were supplemented with 50 ng/mL (final concentration) of FSTL1 and 10 μg/mL of the anti-FSTL1 antibody (#5-2, #5-3, #5-8, #5-10, 45-43, #6-55, or #7-34) or a control antibody anti-DNP antibody and cultured under stimulation. 11 days thereafter, the number of cells was counted while the cells were stained with a PE-Cy5-labeled anti-CD45 antibody (BD Pharmingen/Becton, Dickinson and Company, Cat. No. 555484), and the content of CD45-negative cells reported to generally contain MSCs at a high rate was analyzed by flow cytometry using FACScan to calculate the percentage and number of MSCs per culture (FIG. 5A).
(§2) Mouse bone marrow cells prepared in the same way as in Example 4 were supplemented with 20 ng/mL (final concentration) of FSTL1 and 10 μg/mL of the anti-FSTL1 antibody (#5-2, #5-3, #5-8, #5-10, #5-43, #6-55, #8-1, #8-4, #8-7, and #8-8) or a control antibody anti-DNP antibody and cultured under stimulation. 8 days thereafter, the number of cells was counted while the cells were stained with a PE-Cy5-labeled anti-CD45 antibody, and the content of CD45-negative cells was analyzed by flow cytometry using FACScan to calculate the percentage and number of MSCs per culture (FIG. 6A).
as §2, with “(#5-2,” for “(#5-2, #5-3,”, “#5-8,” for “#5-8, #5-10, #5-43,”, “#6-55, #7-34,” for “#6-55,”, “#8-7, or” for “#8-7, and”, “(FIG. 7).” for “(FIG. 6A).”
as §1, with “35A).” for “5A).”
as §2, with “36A).” for “6A).”
as §2, with “(#5-2,” for “(#5-2, #5-3,”, “#5-8,” for “#5-8, #5-10, #5-43,”, “#6-55, #7-34,” for “#6-55,”, “#8-7, or” for “#8-7, and”, “(FIG. 37).” for “(FIG. 6A).”

[1] = Example 6, FIG. 5A/35A, FSTL1 50 ng/mL, 11 days
[2] = Example 8, FIG. 6A/36A, FSTL1 20 ng/mL, 8 days
[3] = Example 12, FIG. 7/37, FSTL1 20 ng/mL, 8 days

Molecule	inhibitory activity against the expansion of CD45-negative cells by FSTL1 [1]	inhibitory activity against the expansion of CD45-negative cells by FSTL1 [2]	inhibitory activity against the expansion of CD45-negative cells by FSTL1 [3]
#5-43: chicken-mouse chimeric anti-FSTL1 antibody clone; variable regions SEQ ID NO: 779 (light), 781 (heavy) (antibody, V domains shown, mouse constant regions) VH: AVTLDESGGGLQTPGGGLSLVCKGSGFTFSSFNMFWVRQAPGKGLEWVAGIGKDGGTGYGAAVDGRATISKDSGQSTLRLQLNNLRAEDTGTYYCAKAAGGCSYDWCGAYTGDIDTWGHGTEVIVSS VL: ASTQPSSVSANPGEAVKITCSGGSGSYYGWYQQKSPGSAPVTVIYNNNQRPSDIPSRFSGSKSGSTATLTITGVQAEDEAVYFCGGYDSSTGHGGIFGAGTTLTVL	higher inhibitory activity and substantially completely inhibited the action of FSTL1	exhibited inhibitory activity against the expansion of CD45-negative cells by FSTL1; also recorded: Inhibitory activity was confirmed	–
#6-55: chicken-mouse chimeric anti-FSTL1 antibody clone; variable regions SEQ ID NO: 783 (light), 785 (heavy) (antibody, V domains shown, mouse constant regions) VH: AVTLDESGGGLQTPGGALSLVCKGSGFTFTSVTMQWVRQAPGKGLEWVASVCSGSSTYYAPAVKGRATISRDNGQSTVRLQLSNLRPEDTGTYYCAKIAGRARWSCTSAAYNIDAWGHGTEVIVSS VL: ASTQPSSVSAIPGETVKITCSGGGNNYGWYQQRSPGSAPVTVIYYNDNRPSNIPSRFSGSTSGSTSTLTITGVQADDEAIYYCGSWDSNTDSGIFGAGTTLTVL	–	exhibited inhibitory activity against the expansion of CD45-negative cells by FSTL1; also recorded: Inhibitory activity was confirmed	higher inhibitory activity was confirmed in the order of #7-34, #5-2, #6-55, and #8-7
#7-34: chicken-mouse chimeric anti-FSTL1 antibody clone; variable regions SEQ ID NO: 787 (light), 789 (heavy) (antibody, V domains shown, mouse constant regions) VH: AVTLDESGGGLQTPGGGLSLVCKASGFTFSSVTMQWVRQAPGKGLEWVASICSGSSTYYGPAVKGRATISRDNGQNTVRLQLNNLRAEDTATYYCAKIVGRGRWSCTSAAYNIDAWGHGTEVIVSS VL: ASTQPSSVSANPGETVKITCSGGGNNYGWYQQKSPGSAPVTVIYYNNNRPSNIPSRFSGSTSGSTSTLTITGVQAEDEAVYYCGSYEGSTDSGIFGAGTTLTVL	higher inhibitory activity and substantially completely inhibited the action of FSTL1	–	higher inhibitory activity was confirmed in the order of #7-34, #5-2, #6-55, and #8-7; also recorded: stronger inhibitory activity was confirmed in the order of clone #7-34, #5-2, 46-55, and #8-7
#5-3: chicken-mouse chimeric anti-FSTL1 antibody clone; variable regions SEQ ID NO: 767 (light), 769 (heavy) (antibody, V domains shown, mouse constant regions) VH: AVTLDESGGGLQTPGGALSLVCKGSGFSFSSFNMFWVRQAPGKGLEWVAGIGKDGVPKYGAAVDGRATISKDNGQSTMRLQLNNLRAEDTGTYFCAKAAGGCSYDWCGIYAGDIDTWGHGTEVIVSS VL: ASTQPSSVSANPGETVKITCSGGSGYYYGWYQQKSPGSVPVTVIYNNNNRPSDIPSRFSGSKSGSTGTLTITGVRAEDEAVYYCGGYDNSGTGIFGAGTTLTVL	higher inhibitory activity and substantially completely inhibited the action of FSTL1	–	–
#5-8: chicken-mouse chimeric anti-FSTL1 antibody clone; variable regions SEQ ID NO: 771 (light), 773 (heavy) (antibody, V domains shown, mouse constant regions) VH: AVTLDESGGGLQTPGGGLSLVCKGSGFTFSSFNMFWVRQAPGKGLEWVAGIGKDGVPKYGTAVDGRATISKDNGQSTMRLQLNNLRAEDTGTYFCAKAAGGCSYDWCGIYTGDIDTWGHGTEVIVSS VL: ASTQPSSVSANPGEAVKITCSGGSGSYYGWYQQKSPGSAPVTVIYNNNQRPSDIPSRFSGSKSGSTATLTITGVQAEDEAVYFCGGYDSSTGHGGIFGAGTTLTVL	higher inhibitory activity and substantially completely inhibited the action of FSTL1	exhibited inhibitory activity against the expansion of CD45-negative cells by FSTL1; also recorded: Inhibitory activity was confirmed	–
#8-1: chicken-mouse chimeric anti-FSTL1 antibody clone; variable regions SEQ ID NO: 791 (light), 793 (heavy) (antibody, V domains shown, mouse constant regions) VH: AVTLDESGGGLQTPGGALSLVCKGSGFTFSSFNMFWVRQAPGKGLEWVAGIGKDGVPKYGAAVDGRATISKDNGQSTMRLQLNNLRAEDTGTYFCAKAAGGCSYDWCGIYAGDIDTWGHGTEVIVSS VL: ASTQPSSVSANPGEAVKITCSGGSGSYYGWYQQKSPGSAPVTVIYNNNQRPSDIPSRFSGSKSGSTATLTITGVQAEDEAVYFCGGYDSSSGHGGIFGAGTTLTVL	–	exhibited inhibitory activity against the expansion of CD45-negative cells by FSTL1; also recorded: Inhibitory activity was confirmed	–
#8-4: chicken-mouse chimeric anti-FSTL1 antibody clone; variable regions SEQ ID NO: 795 (light), 797 (heavy) (antibody, V domains shown, mouse constant regions) VH: AVTLDESGGGLQTPGGGLSLVCKGSGFTLSSFNMFWVRQAPGKGLEWVAGVGKDGGTAYGAAVDGRATISRDSGQSTVRLQLNNLRAEDTGTYFCAKAAGGCSYSWCGAYVGDLDAWGHGTEVIVSS VL: ASSQPSSVSANPGETVKITCSGGSGYYYGWYQQKSPGSAPVTVIYNNDNKPSDIPSRFSGSKSGSTGTLTITGVQVEDEAVYFCGGYDNSGTGIFGAGTTLTVL	–	exhibited inhibitory activity against the expansion of CD45-negative cells by FSTL1	–
#5-2: chicken-mouse chimeric anti-FSTL1 antibody clone; variable regions SEQ ID NO: 763 (light), 765 (heavy) (antibody, V domains shown, mouse constant regions) VH: AVTLDESGGGLQTPGGGLSLVCKGSGFTFSSFNMFWVRQAPGKGLEWVAGVGKDGGTGYGAAVDGRATISKDNGQSTLRLQLNNLRAEDTGTYYCAKAAGGCSYGWCGSYVGDIDAWGHGTEVIVSS VL: ASTQPSSVSANPGEAVKITCSGGSGSYYGWYQQKSPGSAPVTVIYNNNQRPSDIPSRFSGSKSGSTATLTITGVQAEDEAVYFCGGYDSSTGHGGIFGAGTTLTVL	–	–	higher inhibitory activity was confirmed in the order of #7-34, #5-2, #6-55, and #8-7; also recorded: stronger inhibitory activity was confirmed in the order of clone #7-34, #5-2, 46-55, and #8-7
